Drawing on article PMC9583166 (Frontiers in Cell and Developmental Biology, 2022), this text covers Kd for 4 molecules.

Common to all, as to assay: fluorescence polarisation; increasing amounts of SIN1 protein titrated to 1 µM mGppNHp-bound GTPase; 21°C; 30 mM Tris/HCl pH 7.5, 150 mM NaCl, 5 mM MgCl2, 3 mM dithiothreitol; quadratic ligand binding equation
Common to all, as to details: both partners purified
A general note: In fluorescence polarisation assays a small probe gives low polarisation when free and higher when bound to something large.

Assay [1] has as its target T1, RIT1 ( (the printed accession is a …, UniProt Q92963 1-219)).
T1 construct: RIT1, full length gene; Loaded with mant-GppNHp for fluorescence polarisation

Assay [2] has as its target T2, NRAS ( (the printed accession is a …, UniProt P01111 1-189)).
T2 construct: NRAS, full length gene; Loaded with mant-GppNHp for fluorescence polarisation

Another assay has as its target T3, RRAS ( (the printed accession is a …, UniProt P10301 1-218)).
T3 construct: RRAS (RRAS1), full length gene; Loaded with mant-GppNHp for fluorescence polarisation; also called RRAS1
T3 sequence (looked up): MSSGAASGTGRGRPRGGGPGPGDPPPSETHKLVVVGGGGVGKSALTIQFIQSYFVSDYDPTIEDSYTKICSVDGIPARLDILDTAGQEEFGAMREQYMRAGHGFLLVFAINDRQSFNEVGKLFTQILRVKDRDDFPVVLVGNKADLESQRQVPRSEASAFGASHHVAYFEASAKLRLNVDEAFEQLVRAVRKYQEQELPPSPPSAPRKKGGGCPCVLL

Another assay addresses T4, TC21 ( (the printed accession is a …, UniProt P62070 1-204)).
T4 construct: RRAS2 (TC21), full length gene; Loaded with mant-GppNHp for fluorescence polarisation; also called RRAS2
T4 sequence (looked up): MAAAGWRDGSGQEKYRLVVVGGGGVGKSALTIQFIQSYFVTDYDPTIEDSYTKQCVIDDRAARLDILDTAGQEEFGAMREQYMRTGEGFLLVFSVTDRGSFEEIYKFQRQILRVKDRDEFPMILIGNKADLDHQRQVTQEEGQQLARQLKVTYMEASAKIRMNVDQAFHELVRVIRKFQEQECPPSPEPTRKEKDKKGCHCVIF

Assay [3] deals with T5, KRAS4A ( (the printed accession is a …, UniProt P01116-1 1-189)).
T5 construct: KRAS isoform 4A, full length gene; Loaded with mant-GppNHp for fluorescence polarisation; A farnesylated KRAS4A from insect cells was used only in liposome flotation

The next assay concerns the target T6, RAP2A ( (the printed accession is a …, UniProt P10114 1-183)).
T6 construct: RAP2A, full length gene; Loaded with mant-GppNHp for fluorescence polarisation
T6 sequence (looked up): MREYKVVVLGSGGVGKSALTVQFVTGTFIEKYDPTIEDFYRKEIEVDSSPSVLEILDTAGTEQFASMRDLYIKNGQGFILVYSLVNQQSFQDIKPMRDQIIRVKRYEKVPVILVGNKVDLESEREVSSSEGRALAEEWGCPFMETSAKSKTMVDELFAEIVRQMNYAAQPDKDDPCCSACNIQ

Another assay concerns the target T7, RHEB ( (the printed accession is a …, UniProt Q15382 1-184)).
T7 construct: RHEB, full length gene; Loaded with mant-GppNHp for fluorescence polarisation

For a further assay, the target named is T8, RALA ( (the printed accession is a …, UniProt P11233 1-206)).
T8 construct: RALA, full length gene; Loaded with mant-GppNHp for fluorescence polarisation
T8 sequence (looked up): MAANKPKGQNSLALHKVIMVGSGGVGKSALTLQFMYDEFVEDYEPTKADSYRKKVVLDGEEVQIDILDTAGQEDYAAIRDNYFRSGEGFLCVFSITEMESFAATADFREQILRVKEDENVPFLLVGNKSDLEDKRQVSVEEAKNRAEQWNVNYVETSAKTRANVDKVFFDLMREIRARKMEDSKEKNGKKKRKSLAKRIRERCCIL

A further assay concerns the target T9, KRAS4B ( (the printed accession is a …, UniProt P01116-2 1-188)).
T9 construct: KRAS isoform 4B, full length gene; Loaded with mant-GppNHp for fluorescence polarisation

The target of a further assay is T10, RHOA ( (the printed accession is a …, UniProt P61586 1-193)).
T10 construct: RHOA, full length gene; Loaded with mant-GppNHp for fluorescence polarisation
T10 sequence (P61586 whole entry): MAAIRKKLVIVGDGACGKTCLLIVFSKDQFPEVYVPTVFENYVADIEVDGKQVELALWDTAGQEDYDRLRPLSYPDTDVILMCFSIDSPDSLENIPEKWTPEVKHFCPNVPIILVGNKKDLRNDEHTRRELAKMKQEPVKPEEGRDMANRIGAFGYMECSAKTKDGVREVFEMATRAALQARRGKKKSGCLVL

In a further assay the target is T11, ERAS ( (the printed accession is a …, UniProt Q7Z444 1-233)).
T11 construct: ERAS, full length gene; Loaded with mant-GppNHp for fluorescence polarisation
T11 sequence (looked up): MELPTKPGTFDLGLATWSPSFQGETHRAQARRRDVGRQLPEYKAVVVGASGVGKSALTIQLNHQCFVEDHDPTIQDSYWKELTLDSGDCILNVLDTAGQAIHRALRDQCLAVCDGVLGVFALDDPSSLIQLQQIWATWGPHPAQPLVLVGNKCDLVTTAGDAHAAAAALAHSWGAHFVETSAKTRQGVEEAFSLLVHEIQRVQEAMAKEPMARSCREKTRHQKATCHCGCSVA

Assay [4] has as its target T1, RIT1. This is another data set of the same source.
Assay [5] has as its target T5, KRAS4A. The source holds these as a separate data set.
The target in assay [6] is T2, NRAS. The source holds these as a separate data set.
A further assay addresses T12, HRAS ( (the printed accession is a …, UniProt P01112 1-189)).
T12 construct: HRAS, full length gene; Loaded with mant-GppNHp (or mant-GDP) for fluorescence polarisation; also called HRAS•mGppNHp; HRAS•mGDP

For assay [7], the target named is T5, KRAS4A. The source holds these as a separate data set.

Numbering of substitutions follows the chain as printed. Names and notes keep the numbering of the source.

T1 sequence (Q92963 whole entry): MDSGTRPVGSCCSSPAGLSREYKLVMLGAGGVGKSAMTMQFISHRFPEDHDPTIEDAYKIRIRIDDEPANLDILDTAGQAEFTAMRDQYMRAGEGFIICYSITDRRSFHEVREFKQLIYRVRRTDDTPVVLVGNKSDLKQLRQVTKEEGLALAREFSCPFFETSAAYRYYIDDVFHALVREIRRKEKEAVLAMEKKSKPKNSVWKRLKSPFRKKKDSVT
T2 sequence (P01111 whole entry): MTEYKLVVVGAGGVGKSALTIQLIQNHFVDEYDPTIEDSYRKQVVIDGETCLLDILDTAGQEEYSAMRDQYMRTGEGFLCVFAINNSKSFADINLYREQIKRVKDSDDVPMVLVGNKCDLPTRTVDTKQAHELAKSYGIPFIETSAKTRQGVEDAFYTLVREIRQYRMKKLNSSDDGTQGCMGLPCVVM
T12 sequence (P01112 whole entry): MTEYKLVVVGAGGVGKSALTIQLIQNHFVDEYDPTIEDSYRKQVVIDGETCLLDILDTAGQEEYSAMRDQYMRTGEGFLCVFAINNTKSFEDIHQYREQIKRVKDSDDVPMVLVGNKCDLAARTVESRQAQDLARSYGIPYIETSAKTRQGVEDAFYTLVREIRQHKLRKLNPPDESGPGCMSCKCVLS
T7 sequence (Q15382 whole entry): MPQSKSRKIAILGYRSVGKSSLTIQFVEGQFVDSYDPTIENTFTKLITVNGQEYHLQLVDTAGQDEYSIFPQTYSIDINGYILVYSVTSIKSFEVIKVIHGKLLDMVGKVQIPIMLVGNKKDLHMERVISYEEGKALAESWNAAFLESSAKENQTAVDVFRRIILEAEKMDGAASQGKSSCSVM

B1: SIN1-RBD (domain or fragment, UniProt Q9BPZ7 266-373, looked up)
chain: EKYSSPGLTSKESLFVRINAAHGFSLIQVDNTKVTMKEILLKAVKRRKGSQKVSGPQYRLEKQSEPNVAVDLDSTLESQSAWEFCLVRENSSRADGVFEEDSQIDIAT
notes: numbers count on isoform 1 (full length); As used in fluorescence polarisation; Limits: 266-373 in the methods, 279-353 in the results; also called SIN1-RBD^WT
Regarding B1, the Kd (in general, the concentration at which binding is half-saturated) amounted to 123 µM in the assay with RIT1 [1]; 31 µM in the assay with NRAS [2]; 123 µM in the assay with RRAS; 878 µM with TC21; 34 µM with KRAS4A [3]; 483 µM in the assay with RAP2A. In addition, the dissociation constant (Kd) with RHEB came to 358 µM; with RALA it was 331 µM; with KRAS4B, 33 µM; with RHOA, 535 µM; with ERAS, 171 µM; with RIT1 [4], 112 µM. In the assay with KRAS4A [5], this molecule displayed a Kd of 35 µM.

B2: SIN1-RBD^K307D (domain or fragment, UniProt Q9BPZ7 266-373, looked up)
chain: B1 chain with K42D
notes: numbers count on isoform 1 (full length); also called SIN-RBD^K307D; SIN1^K307D
With B2, the results for the Kd with NRAS [6], in the assay with HRAS and with KRAS4A [7] were 166 µM, 324 µM and 256 µM, respectively.

B3: SIN1-RBD^RR311-312EE (domain or fragment, UniProt Q9BPZ7 266-373, looked up)
chain: B1 chain with R46E, R47E
notes: numbers count on isoform 1 (full length); also called SIN-RBD^RR311,312EE; SIN1^RR311-312EE
With B3, the results for the Kd with HRAS and in the assay with KRAS4A [7] were 461 µM and 952 µM, respectively.

B4: SIN1-RBD^FSL289-291REE (domain or fragment, UniProt Q9BPZ7 266-373, looked up)
chain: B1 chain with F24R, S25E, L26E
notes: numbers count on isoform 1 (full length); also called SIN-RBD^FSL289-291REE; SIN1^FSL289-291REE
Turning to B4, in the assay with KRAS4A [7], the Kd was 654 µM.
